Reference: the supplement of paper PMC9170038

What follows are sequences tested on MS2 coat protein (assay: apparent KD of MS2 coat protein; higher = weaker reporter binding). Details: Eterna round: R107; input ligand: arginine 13.2 mM.
In short: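 Titration buffer: 100 mM Tris-HCl pH 7.5, 80 mM KCl, 4 mM MgCl2, without or with constant ligand. Designed RNA switches transcribed on-chip from Illumina sequencing clusters received SNAP-549-labelled MS2 coat protein in twofold steps from 0.7 or 1.5 nM to 3 µM. Apparent KD is the median per design of fits to normalised cluster binding curves.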

| Sequence | apparent KD of MS2 coat protein |
| --- | --- |
| ACCUACACGGAGACGUGUAGGAGUAAUGAUACCAGCAUGGAGACAUGCCCUUGGCAGCGUUACAUGAGGAUCACCCAUGUAGGUU [ETHA #4] | 43.3 nM |
| GAGUUCCUGAGAGAUACCAGUGAGGCCACAUGAGGAUCACCCAUGUCCCUCACUCCGGCCCACCCUUGGCAGCUCGAAAGAUAUU [Exclusion Theophylline B GF 22] | 11.3 nM |
| UGGAGUAGGGUAAAUAGGAUAAGUACAGAAGGAGCGCGAAUAAACGCAGGUAGGUCGCUGGAACACAUGAGGAUCACCCAUGUUG [Same State Arginine A GF 24] | 20.9 nM |
| ACACAUGAGGAUCACCCAUGUCCAAUAGAUACCAGUGAUACGGUGCACCCUUGGCAGCUGUUACUGAGUGAUGGUUCCCUCGGAA [Same State Theophylline A GF3] | 48.1 nM |
| AGAAUAACAUGAGCAAAGCUCAUGUGCGAAGGAGCGGCGGAAACGCCAGGUAGGUCGCGCACAUGAGCAUCAGCCAUGUGUACCA [Omei Arginine B SS A v5] | 11.5 nM |
| ACAUGAGGAUCACCCAUGUGGCGUCUUGAUACCAGACCCGAAGUAGUCCCUUGGCAGCAACUACGUGAGGGUCGCCCAUGUGUAG [k'kmullin] | 23.5 nM |
| CCUAGCACACAUGAUACCAGCGACAUGAGGAUCACCCAUGUACGGCGUGUAUCGCAAGGUUGCCCUUGGCAGCAUGAUAGUGCUG [Xeerdi] | 12.7 nM |
| UCAUAAGUACCGGUCCUCAGAUCCUCAUGACGAGGACCGGUACGGCCGCCACUCGAAACAUGAGGAUCACCCAUGUAAUAAUAUU [Brourdmod11] | 19.5 nM |
| UUGACAUGAGGAUCACCCAUGUAAACUGAAGGAGCGUCGAAAAUGACAGGUAGGUCGCAGAAUAAUAAAGGUGAUGGUAAAUAUU [Exclusion Arginine AGF1] | 21.4 nM |
| AGCGUGCAUCGGAAAACGAUGUACGCAAAUCGAGGACCGGUACGGCCGCCACUCGUCCUCAACAUGAGGAUCACCCAUGUAAUAA [Mat - Exclusion - Trytophan A - D10] | 22 nM |
| GAUUACAUGAGGAUCACCCAUGUAACUGAAGGAGCGGUAAUAAAGCCAGGUAGGUCGCGGAACAACAUGUGGAUCACCCAUGUAA [#13 Exclusion - Arginine A] | 33.7 nM |
| GUACAUGAGGAUCACCCAUGUAUAGUUGAAGGAGCGACCAGAGGGUCAGGUAGGUCGCAGCACAUGAGGUAAGCCCGUGUAUGCU [#1 Exclusion - Arginine A Attempt #19 (Inspired by Pi)] | 30.7 nM |
| CUUGUUUGUGGAAGGAGCGCGAUUACAUAACAUGAGGAUCACCCAUGUAAGAAAUUAUUCAUGCAGGUAGGUCGCCAUUGGUGGG [Same State Arginine B GF8] | 64.1 nM |
| CUUGUGGUCGGAAGGAGCGCGAUUACAUAACAUGAGGAUCACCCAUGUAAGAAAUUAUUCAUGCAGGUAGGUCGCCGGUCGUGGG [Same State Arginine B GF10] | 22 nM |
| AGCCGGAUUACGGCCGCCACUGUAGACGUGACGAAAGUCGCGUCAACAUGAGGAUCACCCAUGUACAGGACCGGGUGGUCCGGCG [Omei Trp B SS A v1] | 15 nM |
| GCAUCCUAGUCGGCCGCCACUGCACGAUCAGUGGCAGAUCGUCAACAUGAGGAUCACCCAUGUAGCAGGACCGGGACUAGGAUGC [(Trp1)-(TM)''-(TM)'-(Ms2)-(Trp2)_Design3] | 18.5 nM |
| AAAAGAGGUGGAAGGAGCGGGAGACAUGAGGAUCACCCAUGUGAUGUUACGAAAGGUUCAGCCCAGGUAGGUCGCCAUGUCGAAA [zczzmullin] | 36.6 nM |
| AAAAUAAAGGCGGCCGCCACUAGAGUUAGGCUUAUGUACUGGGUAACAUGAGGAUCACCCAUGUAUAGGACCGGGCCAUAAUAAA [Same State - Tryptophan B (Freestyle 2)] | 28 nM |
| GGUAUUGGAACAGAUACCAGUAUCUGUUGAUCCUACAUGAGGAUCACCCAUGUUAGAAAGUACCCUUGGCAGCUGUAAUAAUGCC [Theo B Ex t1] | 52.7 nM |

| Sequence | apparent KD of MS2 coat protein |
| --- | --- |
| CCAUGGCUAGGAAGGAGCGCAUACUUCACAUGAGGAUCACCCAUGUCGAGACGUGAGUCAGUGCAGGUAGGUCGCCUAGCCAUGG [Same State - Arginine B (Freestyle 30)] | 19.8 nM |
| UUUGAUAGGACAGAUACCAGCGUGUUGUUGAACAUGAGGAUCACCCAUGUAGUGAUCAAGCGCCCUUGGCAGCUGGUUUGUUAGG [7.M] | 95.5 nM |
| CUGUGUCCUUCGGCCGCCACUACAUGAGGAUCACCCAUGUCGUUACGGCUCCCAAUGACGCUUUGUAGGACCGGGAAGGAGUAUG [Tienancebe] | 9.27 nM |
| GUGAGGUUUGAUGAUACCAGAUGUGGUGGGAACAUGAGGAUCACCCAUGUUGUGAAACAGGUCCCUUGGCAGCAUGAGAGAGCUU [TheoB-ms2@32] | 30.5 nM |
| CAGAACAUGAGGAUCACCCAUGUCAGGGAUACCAGCUCAGACAUGGGCCCUUGGCAGCUCUGUGGCUGACGAAAGUCAGCAUCUG [#17 SameState-TheophyllineA] | 17.5 nM |
| GGCUACAUGAGGAUCACCCAUGUUUCUCGUCGAGGACCGGUACGGCCGCCACUCGUUGUUGGGACUCAGUAUCAGUCGUUAGUUU [theeternabot_sameState_MS2_Trp_A_36] | 23.8 nM |
| AGAAUAACACAUGAGGAUCACCCAUGUGAUACCAGCUAGGAAACUAGCCCUUGGCAGCACAUAAUCCUCAUGAAUGUGCUGAAUA [(M1)-(M2)-(T1)-(T2)-(M)'-(T)'_Design3_2/19/17] | 37.3 nM |
| GUCGCUGAGGGAAGGAGCGUGAAGACAUGAGGAUCACCCAUGUAGAGGCGCCGAAGGCGUUCGCAGGUAGGUCGCCCUCAGUGAA [#1 Same State - Arginine B Attempt #25 (HarryS)] | 12.4 nM |
| UAGCGAUAAUCUGAUACCAGACGUGUGCUCUCCUCAGACAUGAGGAUCACCCAUGUAUGCGUCCCUUGGCAGCAGAGUGAGGAGA [Theo B Ex t5] | 19.6 nM |
| ACACAAUACAUGAGGAUCACCCAUGUAAAACGAGGACCGGUACGGCCGCCACUCGAAUACAGGAAACCUCGGAAUAUUAAGUGAA [JR_ExcTryptA_Sub001] | 26.9 nM |
| UGUUUGGUGCGCGAGUGUUGGAUAAAUGAUACCAGUGUAGAUGUACGCCCUUGGCAGCGUAUCCGAACAUGAGGAUCACCCAUGU [5.aB] | 26.7 nM |
| GUAUACAUGAGGAUCACCCAUGUACCAGAAGGAGCGCUGGAAACAGCAGGUAGGUCGCUGGUAGGUCCUCUAUCUAGACGUUCUA [EAA NP+V+V2 #5] | 28.1 nM |
| UGGGAAGGAGGAAGGAGCGCCAUAAGGGUGACAGUCUGGGUACAUGAGGAUCACCCAUGUAGGCAGGUAGGUCGCCUAGCUCUCA [XArg-B16] | 9.4 nM |
| UGACAUUGCUGCGAUACCAGACAUGAGGAUCACCCAUGUACCAAGGUAAGAAAAUAACAUGUCCCUUGGCAGCGCAGCAAUGUCU [MAT - Exclusion Theophlline B - Mod of Eli - D1] | 18.9 nM |
| ACAUGAGGAUCCGAUACCAGCCACAUGAGGAUCACCCAUGUAGUACAUGAGGAUCACCCAGGCCCUUGGCAGCGGACAUGAGGAU [Exclusion - Theophylline B] | 95.9 nM |
| ACAAGAGGGAUGGAUACCAGCGACAUGAGGAUCACCCAUGUAUGAGGAUCAGCCAUGUUAUGCCCUUGGCAGCCACGAACAUCAG [SSAMULLIN] | 27.5 nM |
| UUAAUCAUUAUAGAAAACUAUAAUGCAGAAGGAGCGUGAUAAAACACAGGUAGGUCGCUGAAGGGAACAUGAGGAUCACCCAUGU [AstrosSSArgA#6] | 21.3 nM |
| CUCCUGUGAGCGGCCGCCACUGGAGGCCUCGCGCGACAUGAGGAUCACCCAUGUUGGCCCGGCCUCAGGACCGGGUUCGCGCGAG [Same State - Tryptophan B Attempt #4 (HarryS)] | 7.89 nM |
| AAUAGCUUGAGGAUCACCCAAGUAAAAGAUACCAGAGUGAUGAUCCUCCCUUGGCAGCUUAACGCUGAUUGAUUACAAUCAGCGA | 46.5 nM |

Same assay, conditions: Eterna round: R107; input ligand: none

| Sequence | apparent KD of MS2 coat protein |
| --- | --- |
| ACCUACACGGAGACGUGUAGGAGUAAUGAUACCAGCAUGGAGACAUGCCCUUGGCAGCGUUACAUGAGGAUCACCCAUGUAGGUU [ETHA #4] | 43.6 nM |
